Results as given in patent publication US20150267177A1.
Like-named read-outs stand apart in the source and are kept apart here. Values belong to the molecule of their own block, whether it stands above or below them.

How the values were obtained:
[1] = system: Act-PB1 (MDH activator protein Act of Bacillus methanolicus PB1)
[2] = target: T1, Mdh-MGA3 (methanol dehydrogenase Mdh of Bacillus methanolicus MGA3, encoded on plasmid pBM19) (Bacillus methanolicus MGA3) (UniProt P31005); experiment: cell-based or functional assay
T1 sequence: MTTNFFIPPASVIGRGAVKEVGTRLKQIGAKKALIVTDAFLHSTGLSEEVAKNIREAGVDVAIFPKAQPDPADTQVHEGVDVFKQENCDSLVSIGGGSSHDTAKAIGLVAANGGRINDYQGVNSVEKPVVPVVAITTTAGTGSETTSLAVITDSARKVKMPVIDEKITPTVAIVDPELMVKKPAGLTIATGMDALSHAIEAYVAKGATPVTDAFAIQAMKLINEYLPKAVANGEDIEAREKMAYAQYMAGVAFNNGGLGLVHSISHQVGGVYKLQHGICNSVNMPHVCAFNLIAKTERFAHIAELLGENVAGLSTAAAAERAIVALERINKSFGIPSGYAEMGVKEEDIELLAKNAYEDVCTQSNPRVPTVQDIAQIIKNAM

[3] = target: T2, Mdh3-MGA3 (methanol dehydrogenase Mdh3 of Bacillus methanolicus MGA3) (Bacillus methanolicus MGA3); experiment: cell-based or functional assay
T2 sequence: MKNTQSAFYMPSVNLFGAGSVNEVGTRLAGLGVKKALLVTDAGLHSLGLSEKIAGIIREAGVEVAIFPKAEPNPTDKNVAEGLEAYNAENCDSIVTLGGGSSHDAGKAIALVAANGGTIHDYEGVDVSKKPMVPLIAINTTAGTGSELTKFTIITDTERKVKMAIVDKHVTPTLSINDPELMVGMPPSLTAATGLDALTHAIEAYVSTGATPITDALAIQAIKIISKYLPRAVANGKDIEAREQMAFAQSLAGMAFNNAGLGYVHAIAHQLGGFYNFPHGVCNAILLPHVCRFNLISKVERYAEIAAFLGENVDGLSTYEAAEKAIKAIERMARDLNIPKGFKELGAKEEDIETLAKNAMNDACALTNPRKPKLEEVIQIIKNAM

the MGA3 MDHs = experiment: cell-based or functional assay
[4] = target: T3, Mdh2-MGA3 (methanol dehydrogenase Mdh2 of Bacillus methanolicus MGA3) (Bacillus methanolicus MGA3); experiment: cell-based or functional assay
T3 sequence: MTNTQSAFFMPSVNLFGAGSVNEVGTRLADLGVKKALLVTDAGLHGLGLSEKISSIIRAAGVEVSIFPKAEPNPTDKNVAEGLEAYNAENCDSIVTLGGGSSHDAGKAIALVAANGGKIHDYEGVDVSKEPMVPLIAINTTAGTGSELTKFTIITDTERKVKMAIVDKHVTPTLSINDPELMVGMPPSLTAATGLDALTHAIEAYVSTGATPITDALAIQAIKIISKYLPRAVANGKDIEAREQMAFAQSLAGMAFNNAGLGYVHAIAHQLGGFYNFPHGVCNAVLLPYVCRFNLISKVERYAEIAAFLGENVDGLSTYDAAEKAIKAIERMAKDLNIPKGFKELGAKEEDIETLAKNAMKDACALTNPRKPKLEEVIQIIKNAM

[5] = target: T4, Mdh-MGA3 (methanol dehydrogenase Mdh of Bacillus methanolicus MGA3, encoded on plasmid pBM19)
T4 chain: T1 sequence

[6] = target: T5, Act-PB1 (MDH activator protein Act of Bacillus methanolicus PB1); remark: listed apart in the source
T5 sequence (Q8KP10 2-185, looked up): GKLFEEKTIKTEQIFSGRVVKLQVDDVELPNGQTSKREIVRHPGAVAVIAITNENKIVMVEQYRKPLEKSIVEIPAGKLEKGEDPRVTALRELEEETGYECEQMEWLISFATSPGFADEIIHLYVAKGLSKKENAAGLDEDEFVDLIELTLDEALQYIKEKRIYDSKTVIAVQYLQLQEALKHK

[7] = target: T6, Act-MGA3 (MDH activator protein Act of Bacillus methanolicus MGA3)
T6 sequence (Q8KP10 2-185, looked up): T5 sequence (Q8KP10 2-185, looked up)

Molecule: Mdh-PB1 (methanol dehydrogenase Mdh of Bacillus methanolicus PB1, encoded on plasmid pBM20)
Km for methanol in the presence of Act (20 ug MDH + 20 ug Act) [1]: 13.9 mM | Vmax with methanol in the presence of Act (20 ug MDH + 20 ug Act) [1]: 0.2 U/mg | Vmax with methanol, with Act against single enzyme assay [1]: The Vmax values were increased 4-6-fold compared to in the single enzyme assays | fold reduction of Km,MeOH by Act [1]: substantially reduced (16-fold and 70-fold, respectively) in the presence of Act

Molecule: Mdh1-PB1 (methanol dehydrogenase Mdh1 of Bacillus methanolicus PB1)
Km for methanol in the presence of Act (20 ug MDH + 20 ug Act) [1]: 2.3 mM | Vmax with methanol in the presence of Act (20 ug MDH + 20 ug Act) [1]: 0.056 U/mg | Vmax with methanol, with Act against single enzyme assay [1]: The Vmax values were increased 4-6-fold compared to in the single enzyme assays | fold reduction of Km,MeOH by Act [1]: substantially reduced (16-fold and 70-fold, respectively) in the presence of Act

Mdh activity in vitro, crude extract of E. coli co-expressing Act, 37 C, +Act [2]: 464 mU/mg | Mdh activity in vitro, crude extract of E. coli co-expressing Act, 45 C, +Act [2]: 1260 mU/mg | Mdh activity in vivo, E. coli cells co-expressing Act, 37 C, +Act [2]: 1 mU/mg | Mdh activity in vivo, E. coli cells co-expressing Act, 42 C, +Act [2]: 1 mU/mg | Mdh activity in vitro, crude extract of E. coli co-expressing Act, 37 C, +Act [3]: 327 mU/mg | Mdh activity in vitro, crude extract of E. coli co-expressing Act, 45 C, +Act [3]: 867 mU/mg | Mdh activity in vivo, E. coli cells co-expressing Act, 37 C, +Act [3]: 11 mU/mg | Mdh activity in vivo, E. coli cells co-expressing Act, 42 C, +Act [3]: 24 mU/mg | fold increase of catalytic activity, ethanol as substrate (the MGA3 MDHs): 6 to 8 fold | fold induction of MDH activity, methanol as substrate, MDH:Act 1:1 (the MGA3 MDHs): 5 to 7 fold | Mdh activity in vitro, crude extract of E. coli co-expressing Act, 37 C, +Act [4]: 672 mU/mg | Mdh activity in vitro, crude extract of E. coli co-expressing Act, 45 C, +Act [4]: 1910 mU/mg | Mdh activity in vivo, E. coli cells co-expressing Act, 37 C, +Act [4]: 9 mU/mg | Mdh activity in vivo, E. coli cells co-expressing Act, 42 C, +Act [4]: 11.3 mU/mg
B1: Act-MGA3 (MDH activator protein Act of Bacillus methanolicus MGA3) (protein, UniProt Q8KP10 2-185, looked up)
Methanol dehydrogenase activator: T5 sequence (Q8KP10 2-185, looked up)

B2: B. subtilis NudF protein (nudF gene product, ADP-ribose pyrophosphatase subfamily of Nudix hydrolases) (protein)
chain: MKSLEEKTIAKEQIFSGKVIDLYVEDVELPNGKASKREIVKHPGAVAVLAVTDEGKIIMVKQFRKPLERTIVEIPAGKLEKGEEPEYTALRELEEETGYTAKKLTKITAFYTSPGFADEIVHVFLAEELSVLEEKRELDEDEFVEVMEVTLEDALKLVESREVYDAKTAYAIQYLQLKEALQAQK
fold stimulation of Mdh activity, ethanol as substrate [5]: Mdh activity was stimulated equally well (about 8-fold) with NudF as with Act

B3: Mdh2-PB1 (methanol dehydrogenase Mdh2 of Bacillus methanolicus PB1) (protein)
chain: MTNTQSIFYIPSVNLFGPGSVNEVGTRLAGLGVKKALLVTDAGLHGLGLSEKIASIIREAGVEVLIFPKAEPNPTDKNVAEGLEVYNAENCDSIVTLGGGSSHDAGKGIALVAANGGTIYDYEGVDKSKKPMVPLIAINTTAGTGSELTRFTIITDTERKVKMAIVDKHVTPTLSINDPELMVGMPPSLTAATGLDALTHAIEAYVSTAATPITDALAIQAIKIISKYLPRAFANGKDMEAREQMAFAQSLAGMAFNNASLGYVHAIAHQFGGFYNFPHGVCNAILLPHVCRFNLISKVERFAEIAALLGENVAGLSTREAAEKGIKAIERMAKDLNIPRGFKELGAKEEDIVTLAENAMKDATALTNPRKPKLEEVIQIIKNAM
Km for methanol in the presence of Act (20 ug MDH + 20 ug Act) [6]: 36 mM | Vmax with methanol in the presence of Act (20 ug MDH + 20 ug Act) [6]: 0.24 U/mg | Vmax with methanol, with Act against single enzyme assay [6]: The Vmax values were increased 4-6-fold compared to in the single enzyme assays | fold reduction of Km,MeOH by Act [6]: moderately (4-fold) reduced by Act for Mdh2-PB1

B4: Mdh-MGA3 (methanol dehydrogenase Mdh of Bacillus methanolicus MGA3, encoded on plasmid pBM19) (protein)
chain: T1 sequence
Km for methanol in the presence of Act (20 ug MDH + 20 ug Act) [7]: 12 mM | MDH catalytic activity with methanol as substrate, at relative concentrations of the proteins of 1:2-20:1 [7]: Full activation was reached at a relative concentration of between 1:1 and 5:1 and no inhibition due to relative high activator concentrations was observed | Vmax with methanol in the presence of Act (20 ug MDH + 20 ug Act) [7]: 0.5 U/mg | Vmax with methanol, with Act against single enzyme assay [7]: The Vmax values were increased 4-6-fold compared to in the single enzyme assays | fold reduction of Km,MeOH by Act [7]: dramatically reduced (17-fold) to 12 mM for Mdh-MGA3 when Act was added to the reaction | fold stimulation of Mdh activity, ethanol as substrate [7]: Mdh activity was stimulated equally well (about 8-fold) with NudF as with Act | methanol dehydrogenase activity in lysates of recombinant B. subtilis 168, methanol or ethanol as substrate, 50 C [7]: In all cases, methanol dehydrogenase activities were significantly stimulated by Act

B5: Mdh3-MGA3 (methanol dehydrogenase Mdh3 of Bacillus methanolicus MGA3) (protein)
chain: T2 sequence
Km for methanol in the presence of Act (20 ug MDH + 20 ug Act) [7]: 150 mM | Vmax with methanol in the presence of Act (20 ug MDH + 20 ug Act) [7]: 0.45 U/mg | Vmax with methanol, with Act against single enzyme assay [7]: The Vmax values were increased 4-6-fold compared to in the single enzyme assays | change of Km,MeOH by Act [7]: remained essentially the same as when tested without Act | methanol dehydrogenase activity in lysates of recombinant B. subtilis 168, methanol or ethanol as substrate, 50 C [7]: In all cases, methanol dehydrogenase activities were significantly stimulated by Act

B6: Mdh2-MGA3 (methanol dehydrogenase Mdh2 of Bacillus methanolicus MGA3) (protein)
chain: T3 sequence
Km for methanol in the presence of Act (20 ug MDH + 20 ug Act) [7]: 200 mM | Vmax with methanol in the presence of Act (20 ug MDH + 20 ug Act) [7]: 0.15 U/mg | Vmax with methanol, with Act against single enzyme assay [7]: The Vmax values were increased 4-6-fold compared to in the single enzyme assays | change of Km,MeOH by Act [7]: remained essentially the same as when tested without Act | methanol dehydrogenase activity in lysates of recombinant B. subtilis 168, methanol or ethanol as substrate, 50 C [7]: In all cases, methanol dehydrogenase activities were significantly stimulated by Act
